Reference: the RNAGym collection of RNA variant scans (doi:10.1073/pnas.2313332121)
Fewer inactive variants are shown than the library holds.

B1: TPR 5TU (parent)
chain: GGAUCUUCUCGAUCUAACAAAAAAGACAAAUCUGCCACAAAGCUUGAGAGCAUCUUCGGAUGCAGAGGCGGCAGCCUUCGGUGGCGCGAUAGCGCCAACGUUCUCAACUAUGACACGCAAAACGCGUGCUCCGUUGAAUGGAGUUUAUCAUG

Variants of: B1
Assay: polymerase ribozyme fitness, log enrichment relative to wild type (log ratio); higher = more active; in vitro selection for triplet polymerase activity
How it was run: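 Mutant libraries for each subunit of a heterodimeric triplet polymerase ribozyme were made by PCR and then transcribed. Each library underwent one round of in vitro selection in triplicate: annealing with a biotinylated primer, the partner subunit and triplets, frozen incubation at −7 °C, gel excision of extended constructs, streptavidin-bead capture and RT-PCR. Input and output libraries were Illumina-sequenced, and only genotypes with ≥10 input reads and ≥1 read per output were kept. Fitness is the logarithm, base 2, of genotype enrichment over wild-type enrichment, computed from inverse-variance-weighted replicate averages.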

Variant | polymerase ribozyme fitness (log ratio)
GGAUCUUCUCGAUCUAACAAAAAAGACAAAUCUGCCACAAAGCUUGAGAGCAUCUUCGGAUGCAGAGGCGGCAGCAUUCGGUGGUGCGAUAGCGCCAACGUUCUCAACUAUGACACGCAAAACGCGUGCUCCGUUGAAUCGAGUUUAUCAUG | -3.97
GGAUCUUCUCGAUCUAACAAAAAAGACAAAUCUGCCACAAAGCUUGAGAGCAUCUUCGGAUGCAGAGGCGGCAGCAUUCGGUGGCGCGAUAGCGCCAACGUGCUCAACUAUGACACGCAAAACGCGUGCUCCGUUGAAUGGAGUUUAUCAUG | ≤ -4.2
GGAUCUUCUCGAUCUAACAAAAAAGACAAAUCUGCCACAAAGCUUGAGAGCAUCUUCGGAUGCAGAGGCGGCAGCAUUCGGUGGCGCGAUAGCGCCAACGUUCUUAACUAUGACACGCAAAACGCGUGCUCCGUUGAAUGGAGUUUAUCAUG | -2.47
GGAUCUUCUCGAUCUAACAAAAAAGACAAAUCUGCCACAAAGCUUGAGAGCAUCUUCGGAUGCAGAGGCGGCAGCAUUCGGUGGCGCGAUAGCGUCAACGUUCUCAACUAUGACACGCAAAACGCGUGCUCCGUUGAAUGGGGUUUAUCAUG | -1.94
GGAUCUUCUCGAUCUAACAAAAAAGACAAAUCUGCCACAAAGCUUGAGAGCAUCUUCGGAUGCAGAGGCGGCAGCAUUCGGUGGUGCGAUAGCGCCAACGUUCUCAACUAUGACACGCAAAACGCGUGCUCCGUUGAAUGGAGUCUAUCAUG | -0.371
GGAUCUUCUCGAUCUAACAAAAAAGACAAAUCUGCCACAAAGCUUGAGAGCAUCUUCGGAUGCAGAGGCGGCAGCAUUCGGUGGCGCGAUAGCGCCAACGUUCUCAACUAUGACACGAAAAACGCGUGCUCCGUUGAAUGGAGUUUAUCAUG | -0.944
GGAUCUUCUCGAUCUAACAAAAAAGACAAAUCUGCCACAAAGCUUGAGAGCAUCUUCGGAUGCAGAGGCGGCAGCAUUCGGUGGCGCGAUAGCGCCAACGUUCCCAACUAUGACACGCAAAACGCGUGCUCCGUUGAAUGGAGUUUAUCAUG | -3.57
GGAUCUUCUCGAUCUAACAAAAAAGACAAAUCUGCCACAAAGCUUGAGAGCAUCUUCGGAUGCAGAGGCGGCAGCAUUCGGUGGCGUGAUACCGCCAACGUUCUCAACUAUGACACGCAAAACGCGUGCUCCGUUGAAUGGGGUUUAUCAUG | ≤ -4.2
GGAUCUUCUCGAUCUAACAAAAAAGACAAAUCUGCCACAAAGCUUGAGAGCAUCUUCGGAUGCAGAGGCGGCAGCAUUCGGGGGCGCGAUAGCGCUAACGUUCUCAACUAUGACACGCAAAACGCGUGCUCCGUUGAAUGGAGUUUAUCAUG | -0.697
GGAUCUUCUCGAUCUAACAAAAAAGACAAAUCUGCCACAAAGCUUGAGAGCAUCUUCGGAUGCAGAGGCGGCAGCAUUCGGUGGCGCGAUAGCGCGAACGUUCUCAACUAUGACACGCAAAACGCGUGCUCCGUUGAAUGGAGUUUAUCAUG | -1.51
GGAUCUUCUCGAUCUAACAAAAAAGACAAAUCUGCCACAAAGCUUGAGAGCAUCUUCGGAUGCAGAGGCGGCAGCAUUCGGUGGCGCGAUAGCGCCAACGUUCUCAACUAUGACACGCAAAACGGGUGCUCCGUUGAAUGGAGGUUAUCAUG | -2.22
GGAUCUUCUCGAUCUAACAAAAAAGACAAAUCUGCCACAAAGCUUGAGAGCAUCUUCGGAUGCAGAGGCGGCAGCAUUCGGUGGCGCGAUAGCGCCAAAGUUCUCAACUAUGACACGCAAAACGCGUGCUCCGUUGAAUGGAGUUUAUCAUG | -4.05
GGAUCUUCUCGAUCUAACAAAAAAGACAAAUCUGCCACAAAGCUUGAGAGCAUCUUCGGAUGCAGAGGCGGCAGCAUUCGGUGGCGCGAUAGCGCAAACGUUCUCAACUAUGACACGCAAAACGCGUCCUCCGUUGAAUGGAGUUUAUCAUG | ≤ -4.2
GGAUCUUCUCGAUCUAACAAAAAAGACAAAUCUGCCACAAAGCUUGAGAGCAUCUUCGGAUGCAGAGGCGGCAGCAGUCGGUGGCGCGAUAGCGUCAACUUUCUCAACUAUGACACGCAAAACGCGUGCUCCGUUGAAUGGAGUUUAUCAUG | -4.15
GGAUCUUCUCGAUCUAACAAAAAAGACAAAUCUGCCACAAAGCUUGAGAGCAUCUUCGGAUGCAGAGGCGGCAGCAUUCGGUGGAGCGAUAGCGCCAACGUUCUCAACUAUGACACGCAAAACGCGUGCUCCGUUGAGUGGAGUCUAUCAUG | ≤ -4.2
GGAUCUUCUCGAUCUAACAAAAAAGACAAAUCUGCCACAAAGCUUGAGAGCAUCUUCGGAUGCAGAGGCGGCAGCAUCCGGUGGCGCGAUAGCGCCAACGUUGUCAACUAUGACACGCAAAACGCGUGCUCCGUUGAAUGGAGUUUAUCAUG | ≤ -4.2
GGAUCUUCUCGAUCUAACAAAAAAGACAAAUCUGCCACAAAGCUUGAGAGCAUCUUCGGAUGCAGAGGCGGCAGCAUUCGGUGGCGCGAUAGCGCCAACGUUCUCAACUAUGACACGCAAAACGCGUCCUCCGUUGAAUGGAGUUUAUCAUG | -3.67
GGAUCUUCUCGAUCUAACAAAAAAGACAAAUCUGCCACAAAGCUUGAGAGCAUCUUCGGAUGCAGAGGCGGCAGCAUUCGGUGACGCGAUAGCGCCAACGUUCUCAACUAUGACACGCAAAACGCGUGCUCCGUUGAAUGGAGUUUAUCAUG | -0.957
GGAUCUUCUCGAUCUAACAAAAAAGACAAAUCUGCCACAAAGCUUGAGAGCAUCUUCGGAUGCAGAGGCGGCAGCAUUCGGUGGCGCGAUAGCGCCAACGUUCACAACUAUGACACGCAAAACGAGUGCUCCGUUGAAUGGCGAUUAUCAUG | ≤ -4.2

Variant | polymerase ribozyme fitness (log ratio)
GGAUCUUCUCGAUCUAACAAAAAAGACAAAUCUGCCACAAAGCUUGAGAGCAUCUUCGGAUGCAGAGGCGGCAGCAUUCGGUGGCGCGAUAGCGCCAACGUUUUCAACUAUGACACGCAAAACGCGUGCUCCGAUGAAUGGAGUUUAUCAUG | -4.15
GGAUCUUCUCGAUCUAACAAAAAAGACAAAUCUGCCACAAAGCUUGAGAGCAUCUUCGGAUGCAGAGGCGGCAGCAUUCGGUAGCGCGAUAGCGCCAACGUUCUCAACUAUGACACGCAAAACGCGUGCUCCGUUGAAUGGAGUUUAUCAUG | -2.85
GGAUCUUCUCGAUCUAACAAAAAAGACAAAUCUGCCACAAAGCUUGAGAGCAUCUUCGGAUGCAGAGGCGGCAGCAUUCGGUGGUGCGAUAGCGCCAACGUUCUCAACUAUGACACGCAAAACGCGUGCUCCGUUGAAUGGAGUUUAUCAUG | -0.443
GGAUCUUCUCGAUCUAACAAAAAAGACAAAUCUGCCACAAAGCUUGAGAGCAUCUUCGGAUGCAGAGGCGGCAGCAUUCGGUCGCGCGAUAGCGCCAACGUUCUCAACUAUGACACGCAAAACGCGUGCUCCGUUGGAUGGAGUUUAUCAUG | -3.62
GGAUCUUCUCGAUCUAACAAAAAAGACAAAUCUGCCACAAAGCUUGAGAGCAUCUUCGGAUGCAGAGGCGGCAGCAUUCGGUGGCGCGAUAGCGCUAACGUUCUCAACUAUGACACGCAAAACGCGUGCUCCGUUGAAUGGAGUGUAUCAUG | -0.785
GGAUCUUCUCGAUCUAACAAAAAAGACAAAUCUGCCACAAAGCUUGAGAGCAUCUUCGGAUGCAGAGGCGGCAGCAUUCGGUGGCGCGAUAGCGCCAACGUUCUCAACUAUGACACGCAAAACGCGUGGUCCGUUAAAUGGAGUUUAUCAUG | -3.95
GGAUCUUCUCGAUCUAACAAAAAAGACAAAUCUGCCACAAAGCUUGAGAGCAUCUUCGGAUGCAGAGGCGGCAGCAUUCGGUGGCGCGAUAGCGCUAACGUUCUCAACUAUGACACGCAAAACGCGUGCUCCGUUGAAUUGAGUUUAUCAUG | -3.67
GGAUCUUCUCGAUCUAACAAAAAAGACAAAUCUGCCACAAAGCUUGAGAGCAUCUUCGGAUGCAGAGGCGGCAGCAUUCGGUGGCGCGAUAGCGCCAACGUUCUCAACUAUGACACGCAAAACGCGUGCUCCGUUGAAUGGAGUUUAUCAUA | -2.86
GGAUCUUCUCGAUCUAACAAAAAAGACAAAUCUGCCACAAAGCUUGAGAGCAUCUUCGGAUGCAGAGGCGGCAGCAUUCGGUGGCGCGAUAGCGCCAACGUUCUCAACUAUGACACGCAAAAUGCGUGCUCCGAUGAAUGGAGUUUAUCAUG | -1.5
GGAUCUUCUCGAUCUAACAAAAAAGACAAAUCUGCCACAAAGCUUGAGAGCAUCUUCGGAUGCAGAGGCGGCAGCAUUCGGUGGCUCGAUAGCGCCAACGUUCUCAACUAUGACACGCAAAACGCGUGCUCCGUUGAAUGGAGUUUAUCAUG | -1.75
GGAUCUUCUCGAUCUAACAAAAAAGACAAAUCUGCCACAAAGCUUGAGAGCAUCUUCGGAUGCAGAGGCGGCAGCAUUCGGAGGGGCGAUAGCGCCAACGUUCUCGUGUAUGACACGCAAAACGCGUGAUCCGUUGAAUGGAGUUUAUCAUG | ≤ -4.2
GGAUCUUCUCGAUCUAACAAAAAAGACAAAUCUGCCACAAAGCUUGAGAGCAUCUUCGGAUGCAGAGGCGGCAGCAUUCGGUGACGCGAUAGCGCCAACGUUCUCAACUAUGACACGCAAAACGCGUGCUCCGGUGAAUGGAGUUUAUCAUG | -2.67
GGAUCUUCUCGAUCUAACAAAAAAGACAAAUCUGCCACAAAGCUUGAGAGCAUCUUCGGAUGCAGAGGCGGCAGCAUUCGGUGGCGCGAUAGAGCCAACGUUCUCAACUAUGACACGCAAAACGCGUGCUCCGUUGAAUGGAGUUUAUCAUG | -3.88
GGAUCUUCUCGAUCUAACAAAAAAGACAAAUCUGCCACAAAGCUUGAGAGCAUCUUCGGAUGCAGAGGCGGCAGCAUUCGGUUGCGCGAUAGCGCCAACGUUCUCGACUAUGACACGCAAAACGCGUGCUCCGUUGAAUGGAGUUUAUCAUG | -3.45
GGAUCUUCUCGAUCUAACAAAAAAGACAAAUCUGCCACAAAGCUUGAGAGCAUCUUCGGAUGCAGAGGCGGCAGCAUUCGGUGGCGCGAUAGCACCAACGUUCUCAACUAUGACACGCAAAACGCGUGCUCCGUUGAAUGGAGUUUAUCAUG | -0.598
GGAUCUUCUCGAUCUAACAAAAAAGACAAAUCUGCCACAAAGCUUGAGAGCAUCUUCGGAUGCAGAGGCGGCAGCAUUCGGUGGCGCGAUAGCGCCAACGUUCUCAACUAUGACACGCAAAACGCGUGCUGCGUUGAAUGGAGUUUAUCAUG | -3.98
GGAUCUUCUCGAUCUAACAAAAAAGACAAAUCUGCCACAAAGCUUGAGAGCAUCUUCGGAUGCAGAGGCGGCAGCAUUCGGUGGCGCGAUAGCGUCAACGUUCUCAACUAUGACACGCAAAACGCGUGCUCCGUUGAAUGGAGUUUAUCAUG | 0.252
GGAUCUUCUCGAUCUAACAAAAAAGACAAAUCUGCCACAAAGCUUGAGAGCAUCUUCGGAUGCAGAGGCGGCAGCAUUCGGUGGCGUGAUAGCGCCAACGUUCUCAACUAUGACACGCAAAACGCGUGCUCCGUUGAAUGGGGUUUAUCAUG | -1.46
GGAUCUUCUCGAUCUAACAAAAAAGACAAAUCUGCCACAAAGCUUGAGAGCAUCUUCGGAUGCAGAGGCGGCAGCAUUCGGUGGCGCGAUAACGCCAACGUUCUCAACUAUGACACGCAAAACGCGUGCUCCGCUGAAUGGAGUUUAUCAUG | -3.62
